Patent publication US5849493

Target: STF-1 / Pbx complex C2 of Tu-6 nuclear extract (UniProt P52947+P40424)
Assay: EMSA
Conditions: off-rate with 1000-fold unlabeled TSEII, room temperature; C2 supershift/block by STF-1 and Pbx antisera

Sequence of STF-1 / Pbx complex C2 of Tu-6 nuclear extract (P52947 whole entry, chain 1 of 2): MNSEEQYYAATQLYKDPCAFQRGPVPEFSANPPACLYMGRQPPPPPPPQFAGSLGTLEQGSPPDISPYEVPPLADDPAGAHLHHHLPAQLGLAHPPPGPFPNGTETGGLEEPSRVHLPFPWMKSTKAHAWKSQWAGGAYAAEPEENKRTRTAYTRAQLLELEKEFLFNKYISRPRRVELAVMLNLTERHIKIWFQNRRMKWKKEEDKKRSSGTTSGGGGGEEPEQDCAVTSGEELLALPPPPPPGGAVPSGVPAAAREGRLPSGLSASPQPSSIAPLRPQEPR
Sequence of STF-1 / Pbx complex C2 of Tu-6 nuclear extract (P40424 whole entry, chain 2 of 2): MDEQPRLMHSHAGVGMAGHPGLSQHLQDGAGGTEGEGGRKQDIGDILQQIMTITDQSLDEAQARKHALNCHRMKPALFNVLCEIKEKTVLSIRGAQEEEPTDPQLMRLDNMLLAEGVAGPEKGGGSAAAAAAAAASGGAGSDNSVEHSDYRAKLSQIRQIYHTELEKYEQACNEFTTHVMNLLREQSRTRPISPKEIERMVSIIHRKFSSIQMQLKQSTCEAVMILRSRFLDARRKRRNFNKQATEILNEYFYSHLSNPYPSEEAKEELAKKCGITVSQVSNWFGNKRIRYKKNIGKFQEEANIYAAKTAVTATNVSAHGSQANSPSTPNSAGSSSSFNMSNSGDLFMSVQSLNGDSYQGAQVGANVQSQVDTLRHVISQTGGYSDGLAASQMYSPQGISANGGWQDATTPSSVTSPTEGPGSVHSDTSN

## GATCTCAGTAATTAATCATGCA / AGTCATTAATTAGTACGTCATG [somatostatin TSEII]
  koff (min (half-life)): 15
